Assay results from the supplement of paper PMC10567573.

B1: GFOD1 (parent)
chain: EEAEELAKEMSVPFYTSRIDEVLL

Variants of: B1
Experiment: protein stability index of a GFP-peptide fusion (GPS, HEK-293T) (PSI 1-6); higher = more stable
Settings: c terminus: a fixed tail appended
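Note: lentivirally expressed fusions sorted by FACS into six bins by GFP to DsRed ratio, PSI derived from sequencing read proportions per bin multiplied by bin number.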

Question: Which protein stability index does the source give for EEAEELAKEMSVPFCTSRIDEVLL [Y15C] here?
Answer: 3.97

Question: With EEAEELAKEMSVPFQTSRIDEVLL [Y15Q] as the variant, how does the protein stability index read?
Answer: 4.42

Question: With EEAEELAKEMSVPFATSRIDEVLL [Y15A] as the variant, how does the protein stability index read?
Answer: 4.47

Question: Which protein stability index does the source give for EEAEELAKEMSVPFFTSRIDEVLL [Y15F] here?
Answer: 3.61

Question: With EEAEELAKEMSVPFLTSRIDEVLL [Y15L] as the variant, how does the protein stability index read?
Answer: 3.67

Question: For EEAEELAKEMSVPFGTSRIDEVLL [Y15G], which protein stability index is on record?
Answer: 4.97

Question: Which protein stability index does the source give for EEAEELAKEMSVPFMTSRIDEVLL [Y15M] here?
Answer: 4.14

Question: With EEAEELAKEMSVPFETSRIDEVLL [Y15E] as the variant, how does the protein stability index read?
Answer: 4.99

Question: With EEAEELAKEMSVPFYTHRIDEVLL [S17H] as the variant, how does the protein stability index read?
Answer: 3.71

Question: Which protein stability index does the source give for EEAEELAKEMSVPFYTKRIDEVLL [S17K] here?
Answer: 3.87

Question: Which protein stability index does the source give for EEAEELAKEMSVPFYTFRIDEVLL [S17F] here?
Answer: 1.79

Question: Which protein stability index does the source give for EEAEELAKEMSVPFYTCRIDEVLL [S17C] here?
Answer: 2.52

Question: Which protein stability index does the source give for EEAEELAKEMSVPFYTQRIDEVLL [S17Q] here?
Answer: 3.27

Question: For EEAEELAKEMSVPFYTVRIDEVLL [S17V], which protein stability index is on record?
Answer: 3.12

Question: Which protein stability index does the source give for EEAEELAKEMSVPFYTDRIDEVLL [S17D] here?
Answer: 4.98

Question: With EEAEELAKEMSVPFYTLRIDEVLL [S17L] as the variant, how does the protein stability index read?
Answer: 2.09

Question: Which protein stability index does the source give for EEAEELAKEMSVPFYTERIDEVLL [S17E] here?
Answer: 4.27

Question: With EEAEELAKEMSVPFYTARIDEVLL [S17A] as the variant, how does the protein stability index read?
Answer: 3.09

Question: With EEAEELAKEMSVPFYTIRIDEVLL [S17I] as the variant, how does the protein stability index read?
Answer: 2.38

Question: Which protein stability index does the source give for EEAEELAKEMSVSFYTSRIDEVLL [P13S] here?
Answer: 3.47

Question: For EEAEELAKEMSVKFYTSRIDEVLL [P13K], which protein stability index is on record?
Answer: 3.19

Question: Which protein stability index does the source give for EEAEELAKEMSVEFYTSRIDEVLL [P13E] here?
Answer: 3.97

Question: For EEAEELAKEMSVCFYTSRIDEVLL [P13C], which protein stability index is on record?
Answer: 3.27

Question: Which protein stability index does the source give for EEAEELAKEMSVVFYTSRIDEVLL [P13V] here?
Answer: 2.74

Question: Which protein stability index does the source give for EEAEELAKEMSVMFYTSRIDEVLL [P13M] here?
Answer: 3.32

Question: With EEAEEWAKEMSVPFYTSRIDEVLL [L6W] as the variant, how does the protein stability index read?
Answer: 3.75

Question: For EEAEETAKEMSVPFYTSRIDEVLL [L6T], which protein stability index is on record?
Answer: 4.46

Question: With EEAEEEAKEMSVPFYTSRIDEVLL [L6E] as the variant, how does the protein stability index read?
Answer: 4.67

Question: With EEAEESAKEMSVPFYTSRIDEVLL [L6S] as the variant, how does the protein stability index read?
Answer: 4.19

Question: With EEAEEYAKEMSVPFYTSRIDEVLL [L6Y] as the variant, how does the protein stability index read?
Answer: 3.95

Question: With EEAEEHAKEMSVPFYTSRIDEVLL [L6H] as the variant, how does the protein stability index read?
Answer: 4.48

Question: For EEAEEKAKEMSVPFYTSRIDEVLL [L6K], which protein stability index is on record?
Answer: 4.54

Question: With EEAEEQAKEMSVPFYTSRIDEVLL [L6Q] as the variant, how does the protein stability index read?
Answer: 3.7

Question: Which protein stability index does the source give for EEAEEFAKEMSVPFYTSRIDEVLL [L6F] here?
Answer: 3.93

Question: For EEAEELAKCMSVPFYTSRIDEVLL [E9C], which protein stability index is on record?
Answer: 2.55

Question: With EEAEELAKQMSVPFYTSRIDEVLL [E9Q] as the variant, how does the protein stability index read?
Answer: 3.17

Question: Which protein stability index does the source give for EEAEELAKVMSVPFYTSRIDEVLL [E9V] here?
Answer: 3.1

Question: With EEAEELAKWMSVPFYTSRIDEVLL [E9W] as the variant, how does the protein stability index read?
Answer: 2.62

Question: Which protein stability index does the source give for EEAEELAKPMSVPFYTSRIDEVLL [E9P] here?
Answer: 3.01

Question: With EEAEELAKNMSVPFYTSRIDEVLL [E9N] as the variant, how does the protein stability index read?
Answer: 3.71

Question: For EEAEELAKDMSVPFYTSRIDEVLL [E9D], which protein stability index is on record?
Answer: 3.93

Question: With EEAEELAKFMSVPFYTSRIDEVLL [E9F] as the variant, how does the protein stability index read?
Answer: 3.12

Question: Which protein stability index does the source give for EEAEELAKEMFVPFYTSRIDEVLL [S11F] here?
Answer: 2.72

Question: Which protein stability index does the source give for EEAEELAKEMYVPFYTSRIDEVLL [S11Y] here?
Answer: 2.86

Question: Which protein stability index does the source give for EEAEELAKEMEVPFYTSRIDEVLL [S11E] here?
Answer: 4.74

Question: Which protein stability index does the source give for EEAEELAKEMTVPFYTSRIDEVLL [S11T] here?
Answer: 4.12

Question: Which protein stability index does the source give for EEAEELAKEMDVPFYTSRIDEVLL [S11D] here?
Answer: 4.5

Question: For EEAEELAKEMWVPFYTSRIDEVLL [S11W], which protein stability index is on record?
Answer: 2.76

Question: With EEAEELAKEMPVPFYTSRIDEVLL [S11P] as the variant, how does the protein stability index read?
Answer: 3.87

Question: For EEAEELAKEMQVPFYTSRIDEVLL [S11Q], which protein stability index is on record?
Answer: 4.04

Question: With EEAEELAKEMRVPFYTSRIDEVLL [S11R] as the variant, how does the protein stability index read?
Answer: 3.02

Question: With EEAEELAKEMAVPFYTSRIDEVLL [S11A] as the variant, how does the protein stability index read?
Answer: 3.51

Question: With EEAEELAKEMSVPFYFSRIDEVLL [T16F] as the variant, how does the protein stability index read?
Answer: 2.33

Question: Which protein stability index does the source give for EEAEELAKEMSVPFYCSRIDEVLL [T16C] here?
Answer: 3.81

Question: With EEAEELAKEMSVPFYYSRIDEVLL [T16Y] as the variant, how does the protein stability index read?
Answer: 2.27

Question: Which protein stability index does the source give for EEAEELAKEMSVPFYNSRIDEVLL [T16N] here?
Answer: 4.17

Question: For EEAEELAKEMSVPFYWSRIDEVLL [T16W], which protein stability index is on record?
Answer: 2.32

Question: With EEAEELAKEMSVPFYISRIDEVLL [T16I] as the variant, how does the protein stability index read?
Answer: 3.08

Question: Which protein stability index does the source give for EEAEELAKEMSVPFYMSRIDEVLL [T16M] here?
Answer: 3.03

Question: Which protein stability index does the source give for EEAEELAKEMSVPFYVSRIDEVLL [T16V] here?
Answer: 3.45

Question: With EDAEELAKEMSVPFYTSRIDEVLL [E2D] as the variant, how does the protein stability index read?
Answer: 3.72

Question: For EYAEELAKEMSVPFYTSRIDEVLL [E2Y], which protein stability index is on record?
Answer: 2.39

Question: With EFAEELAKEMSVPFYTSRIDEVLL [E2F] as the variant, how does the protein stability index read?
Answer: 2.1

Question: Which protein stability index does the source give for EWAEELAKEMSVPFYTSRIDEVLL [E2W] here?
Answer: 3.66

Question: Which protein stability index does the source give for EGAEELAKEMSVPFYTSRIDEVLL [E2G] here?
Answer: 3.39

Question: With EVAEELAKEMSVPFYTSRIDEVLL [E2V] as the variant, how does the protein stability index read?
Answer: 3.64

Question: For ECAEELAKEMSVPFYTSRIDEVLL [E2C], which protein stability index is on record?
Answer: 3.06

Question: Which protein stability index does the source give for EEAEELCKEMSVPFYTSRIDEVLL [A7C] here?
Answer: 4.06

Question: For EEAEELKKEMSVPFYTSRIDEVLL [A7K], which protein stability index is on record?
Answer: 3.32

Question: With EEAEELRKEMSVPFYTSRIDEVLL [A7R] as the variant, how does the protein stability index read?
Answer: 3.62

Question: For EEAEELNKEMSVPFYTSRIDEVLL [A7N], which protein stability index is on record?
Answer: 4.02

Question: For EEAEELEKEMSVPFYTSRIDEVLL [A7E], which protein stability index is on record?
Answer: 3.87

Question: With EEAEELIKEMSVPFYTSRIDEVLL [A7I] as the variant, how does the protein stability index read?
Answer: 2.77

Question: Which protein stability index does the source give for EEAEELVKEMSVPFYTSRIDEVLL [A7V] here?
Answer: 4.01

Question: With EEAEELMKEMSVPFYTSRIDEVLL [A7M] as the variant, how does the protein stability index read?
Answer: 3.14

Question: For EEAEELPKEMSVPFYTSRIDEVLL [A7P], which protein stability index is on record?
Answer: 4.5

Question: With EEAEELLKEMSVPFYTSRIDEVLL [A7L] as the variant, how does the protein stability index read?
Answer: 2.93

Question: With EEAEELAKEMSVPFYTSRIREVLL [D20R] as the variant, how does the protein stability index read?
Answer: 3.04

Question: Which protein stability index does the source give for EEAEELAKEMSVPFYTSRICEVLL [D20C] here?
Answer: 2.46

Question: With EEAEELAKEMSVPFYTSRIGEVLL [D20G] as the variant, how does the protein stability index read?
Answer: 2.42

Question: For EEAEELAKEMSVPFYTSRIAEVLL [D20A], which protein stability index is on record?
Answer: 2.74

Question: For EEAEELAKEMSVPFYTSRIIEVLL [D20I], which protein stability index is on record?
Answer: 1.9

Question: For EEAEELAKEMSVPFYTSRIDECLL [V22C], which protein stability index is on record?
Answer: 3.7

Question: Which protein stability index does the source give for EEAEELAKEMSVPFYTSRIDEELL [V22E] here?
Answer: 5.12

Question: With EEAEELAKEMSVPFYTSRIDEHLL [V22H] as the variant, how does the protein stability index read?
Answer: 4.68

Question: For EEAEELAKEMSVPFYTSRIDEALL [V22A], which protein stability index is on record?
Answer: 4.53

Question: Which protein stability index does the source give for EEAEELAKEMSVPFYTSRIDEPLL [V22P] here?
Answer: 4.24

Question: For EEAEELAKEMSVPFYTSRIDERLL [V22R], which protein stability index is on record?
Answer: 4.26

Question: With EEAEELAKEMSVPFYTSRIDEDLL [V22D] as the variant, how does the protein stability index read?
Answer: 5.23

Question: Which protein stability index does the source give for EEAEELAKEMSVPFYTSRIDELLL [V22L] here?
Answer: 3.1

Question: With EEAEELAKEMSVPFYTSRIDEYLL [V22Y] as the variant, how does the protein stability index read?
Answer: 3.78

Question: For NEAEELAKEMSVPFYTSRIDEVLL [E1N], which protein stability index is on record?
Answer: 2.83

Question: With IEAEELAKEMSVPFYTSRIDEVLL [E1I] as the variant, how does the protein stability index read?
Answer: 2.46

Question: With YEAEELAKEMSVPFYTSRIDEVLL [E1Y] as the variant, how does the protein stability index read?
Answer: 2.98
